B1: gpIII/env1 phage (ecotropic Moloney MuLV envelope residues 34-468 displayed as a fusion with M13 gpIII) (other)
chain: ASPGSSPHQVYNITWEVTNGDRETVWATSGNHPLWTWWPDLTPDLCMLAHHGPSYWGLEYQSPFSSPPGPPCCSGGSSPGCSRDCEEPLTSLTPRCNTAWNRLKLDQTTHKSNEGFYVCPGPHRPRESKSCGGPDSFYCAYWGCETTGRAYWKPSSSWDFITVNNNLTSDQAVQVCKDNKWCNPLVIRFTDAGRRVTSWTTGHYWGLRLYVSGQDPGLTFGIRLRYQNLGPRVPIGPNPVLADQQPLSKPKPVKSPSVTKPPSGTPLSPTQLPPAGTENRLLNLVDGAYQALNLTSPDKTQECWLCLVAGPPYYEGVAVLGTYSNHTSAPANCSVASQHKLTLSEVTGQGLCIGAVPKTHQALCNTTQTSSRGSYYLVAPTGTMWACSTGLTPCISTTILNLTTDYCVLVELWPRVTYHSPSYVYGLFERSNRHKTSGGGGSPFVCEYQGQSSDLPQPPVNAGGGSGGGSGGGSEGGGSEGGGSEGGGSEGGGSGGGSGSGDFDYEKMANANKGAMTENADENALQSDAKGKLDSVATDYGAAIDGFIGDVSGLANGNGATGDFAGSNSQMAQVGDGDNSPLMNNFRQYLPSLPQSVECRPFVFSAGKPYEFSIDCDKINLFRGVFAFLLYVATFMYVFSTFANILRNKES
notes: Tested as whole phage particles displaying the fusion; also called construct 1
B2: gpIII/env3 phage (ecotropic Moloney MuLV envelope residues 34-266 displayed as a fusion with M13 gpIII) (other)
chain: ASPGSSPHQVYNITWEVTNGDRETVWATSGNHPLWTWWPDLTPDLCMLAHHGPSYWGLEYQSPFSSPPGPPCCSGGSSPGCSRDCEEPLTSLTPRCNTAWNRLKLDQTTHKSNEGFYVCPGPHRPRESKSCGGPDSFYCAYWGCETTGRAYWKPSSSWDFITVNNNLTSDQAVQVCKDNKWCNPLVIRFTDAGRRVTSWTTGHYWGLRLYVSGQDPGLTFGIRLRYQNLGPRVTSGGGGS
notes: range 34-266; Tested as whole phage particles. pelB leader left out; also called construct 3
B3: gpIII/env2 phage (ecotropic Moloney MuLV envelope residues 34-308 displayed as a fusion with M13 gpIII) (other)
chain: ASPGSSPHQVYNITWEVTNGDRETVWATSGNHPLWTWWPDLTPDLCMLAHHGPSYWGLEYQSPFSSPPGPPCCSGGSSPGCSRDCEEPLTSLTPRCNTAWNRLKLDQTTHKSNEGFYVCPGPHRPRESKSCGGPDSFYCAYWGCETTGRAYWKPSSSWDFITVNNNLTSDQAVQVCKDNKWCNPLVIRFTDAGRRVTSWTTGHYWGLRLYVSGQDPGLTFGIRLRYQNLGPRVPIGPNPVLADQQPLSKPKPVKSPSVTKPPSGTPLSPTQLPPATSGGGGS
notes: range 34-308; Tested as whole phage particles. pelB leader left out; also called construct 2

Target: T1, mCAT1, ecotropic retroviral receptor (cationic amino acid transporter), expressed on human 911 cells … (mouse, UniProt Q09143 1-622)
T1 construct: whole, on cells; also called mATRC1; 911-mCAT1-3H7
T1 sequence (Q09143 whole entry): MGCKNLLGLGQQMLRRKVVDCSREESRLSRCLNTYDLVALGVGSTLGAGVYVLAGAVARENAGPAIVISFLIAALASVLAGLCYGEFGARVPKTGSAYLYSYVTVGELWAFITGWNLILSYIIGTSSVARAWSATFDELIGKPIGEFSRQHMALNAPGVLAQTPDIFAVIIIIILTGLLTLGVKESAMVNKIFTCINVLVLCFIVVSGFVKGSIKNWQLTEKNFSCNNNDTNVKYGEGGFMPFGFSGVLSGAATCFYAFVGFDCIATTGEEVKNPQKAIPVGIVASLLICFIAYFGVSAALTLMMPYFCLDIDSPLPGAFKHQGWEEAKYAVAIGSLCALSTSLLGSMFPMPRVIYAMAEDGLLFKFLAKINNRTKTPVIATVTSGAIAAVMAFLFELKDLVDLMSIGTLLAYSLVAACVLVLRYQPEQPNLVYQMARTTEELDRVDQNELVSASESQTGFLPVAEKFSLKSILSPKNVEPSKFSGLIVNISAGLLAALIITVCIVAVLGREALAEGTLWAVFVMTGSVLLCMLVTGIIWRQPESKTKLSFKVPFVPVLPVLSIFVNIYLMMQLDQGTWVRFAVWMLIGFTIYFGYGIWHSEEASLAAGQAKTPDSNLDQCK
Experiment: phage binding to cells, elution with triethylamine, titering (cfu)

| Binder | times more eluted phage from 911-mCAT1 cell line as compared to 911-pcDNA3 cell line [times] |
| --- | --- |
| B1 | 11 |
| B2 | 26 |
| B3 | 97 |
